The values below come from the FLAb antibody collection (doi:10.7554/elife.23156).

A value given as a limit tells only on which side of the number the result lay.

First the molecules themselves.
B1: scFv; the commonest letter at each place (parent)
chain 1: EVKLDETGGGLVQPGRPMKLSCVASGFTFSDYWMNWVRQSPEKGLEWVAQIRNKPYNYETYYSDSVKGRFTISRDDSKSSVYLQMNNLRVEDMGIYYCTGSYYGMDYWGQGTSVTVS
chain 2: DVVMTQTPLSLPVSLGDQASISCRSSQSLVHSNGNTYLRWYLQKPGQSPKVLIYKVSNRFSGVPDRFSGSGSGTDFTLKISRVEAEDLGVYFCSQSTHVPWTFGGGTKLEIK

Variants of B1 are the subject of the data set “fluorescein”. The data set can be described thus: Kd (Tite-Seq). As to conditions: with fluorescein; format: scFv 4-4-20, heavy + light.
Data set [1] covers variants of B1. The data set can be described thus: yeast surface expression (ratio to wild type); higher = more expressed. The settings on record: format: scFv 4-4-20, heavy + light.

The term Kd denotes the equilibrium constant for the complex coming apart.

With chain 1 S30C W36Y, in the data set with fluorescein, the equilibrium dissociation constant (Kd) is 0.0434 µM. Also, the yeast surface expression in data set [1] turned out to be 0.691.

As to chain 1 S30C W36E, the dissociation constant Kd in the data set with fluorescein was ≥ 10 µM. Further, the yeast surface expression in data set [1] stood at 0.214.

chain 1 S30P W33E: the Kd in the data set with fluorescein is ≥ 10 µM. Besides, the yeast surface expression in data set [1] was 1.01.

In the case of chain 1 S30P W33P, the Kd in the data set with fluorescein was ≥ 10 µM. The yeast surface expression in data set [1] was 0.628.

Regarding chain 1 N35I W36L, the Kd in the data set with fluorescein was ≥ 10 µM. Besides, the yeast surface expression in data set [1] was 2.65.

For chain 1 N35I W36N, the equilibrium dissociation constant (Kd) with fluorescein was ≥ 10 µM. In data set [1], the yeast surface expression came to 0.743.

For the variant chain 1 N35K W36F, the equilibrium dissociation constant (Kd) in the data set with fluorescein is ≥ 10 µM. Moreover, the yeast surface expression in data set [1] turned out to be 0.453.

For chain 1 S30P V37S, the dissociation constant (Kd) with fluorescein stood at 0.000939 µM. The yeast surface expression in data set [1] was 0.74.

On to chain 1 S30P V37Y, for which, in the data set with fluorescein, the Kd stood at 0.0729 µM. Moreover, in data set [1], the yeast surface expression came out at 1.25.

With chain 1 N35K V37S, the Kd with fluorescein is ≥ 10 µM. Moreover, in data set [1], the yeast surface expression came to 0.732.

On to chain 1 N35K V37K, for which the Kd with fluorescein is 6.96 µM. Besides, the yeast surface expression in data set [1] turned out to be 0.0981.

As for chain 1 N35K V37M, in the data set with fluorescein, the dissociation constant Kd is ≥ 10 µM. For the same variant, in data set [1], the yeast surface expression stood at 0.48.

On to chain 1 S30A W36H, for which the Kd in the data set with fluorescein is ≥ 10 µM. Besides, the yeast surface expression in data set [1] is 0.457.

For the variant chain 1 S30F V37M, the Kd in the data set with fluorescein is 0.00128 µM. Moreover, the yeast surface expression in data set [1] turned out to be 0.669.

Turning to chain 1 S30P M34F, in the data set with fluorescein, the Kd is 0.00184 µM. In data set [1], the yeast surface expression was found to be 1.2.

As for chain 1 S30D M34F, the Kd with fluorescein is 0.00142 µM. Also, the yeast surface expression in data set [1] was found to be 1.22.

chain 1 S30F N35H: in the data set with fluorescein, the Kd was ≥ 10 µM. Also, the yeast surface expression in data set [1] was 0.53.

Take chain 1 S30F N35T: the Kd with fluorescein is ≥ 10 µM. The yeast surface expression in data set [1] is 0.588.

Take chain 1 S30F N35C: the Kd with fluorescein was ≥ 10 µM. Moreover, the yeast surface expression in data set [1] was 0.555.

On to chain 1 S30D N35R, for which the Kd with fluorescein is ≥ 10 µM. Further, the yeast surface expression in data set [1] amounted to 0.195.

In the case of chain 1 S30D N35Q, the Kd with fluorescein is ≥ 10 µM. For the same variant, the yeast surface expression in data set [1] was found to be 0.883.

Turning to chain 1 N35M V37Y, in the data set with fluorescein, the Kd is ≥ 10 µM. For the same variant, the yeast surface expression in data set [1] was determined as 0.798.

With chain 1 S30I W36V V37Q, the Kd in the data set with fluorescein is ≥ 10 µM. Also, the yeast surface expression in data set [1] was 0.525.

For the variant chain 1 M105Y, in the data set with fluorescein, the Kd is 0.0129 µM. For the same variant, in data set [1], the yeast surface expression was 0.866.

Take chain 1 M105Y D106H W108L: the Kd with fluorescein was ≥ 10 µM. The yeast surface expression in data set [1] was found to be 0.362.

For chain 1 S30P D31A Y32H, the dissociation constant (Kd) in the data set with fluorescein was ≥ 10 µM. Besides, the yeast surface expression in data set [1] was 0.725.

In the case of chain 1 N35Y W36Y V37D, the Kd in the data set with fluorescein is ≥ 10 µM. Also, in data set [1], the yeast surface expression came to 1.04.

Regarding chain 1 S30M V37M, the Kd in the data set with fluorescein worked out at 0.000504 µM. For the same variant, the yeast surface expression in data set [1] worked out at 0.887.

As to chain 1 S30M V37E, the Kd with fluorescein worked out at 0.0107 µM. For the same variant, in data set [1], the yeast surface expression turned out to be 0.721.

On to chain 1 S30K W33L, for which the Kd with fluorescein was ≥ 10 µM. For the same variant, the yeast surface expression in data set [1] came to 0.749.

Turning to chain 1 N35E V37Q, in the data set with fluorescein, the Kd was ≥ 10 µM. Besides, the yeast surface expression in data set [1] turned out to be 0.427.

With chain 1 N35E V37W, the Kd in the data set with fluorescein is ≥ 10 µM. The yeast surface expression in data set [1] turned out to be 0.704.

Take chain 1 N35K: in the data set with fluorescein, the Kd came out at 0.228 µM. For the same variant, in data set [1], the yeast surface expression turned out to be 0.806.

Turning to chain 1 N35E, in the data set with fluorescein, the Kd is ≥ 10 µM. In addition, the yeast surface expression in data set [1] came to 0.802.

On to chain 1 N35R, for which the Kd with fluorescein is ≥ 10 µM. Also, the yeast surface expression in data set [1] came out at 0.534.

Turning to chain 1 N35H, the Kd in the data set with fluorescein is ≥ 10 µM. For the same variant, the yeast surface expression in data set [1] amounted to 0.793.

As for chain 1 N35D, the Kd with fluorescein was ≥ 10 µM. In addition, the yeast surface expression in data set [1] came out at 0.922.

Regarding chain 1 N35A, in the data set with fluorescein, the Kd was ≥ 10 µM. The yeast surface expression in data set [1] worked out at 0.902.

As for chain 1 N35V, in the data set with fluorescein, the Kd was ≥ 10 µM. Also, the yeast surface expression in data set [1] was determined as 0.596.

For the variant chain 1 N35P, the equilibrium dissociation constant (Kd) with fluorescein was ≥ 10 µM. Further, in data set [1], the yeast surface expression came out at 0.672.

For chain 1 N35C, the Kd with fluorescein was ≥ 10 µM. For the same variant, the yeast surface expression in data set [1] stood at 0.708.

For the variant chain 1 N35M, in the data set with fluorescein, the Kd was ≥ 10 µM. The yeast surface expression in data set [1] turned out to be 0.715.

Take chain 1 N35Y: the Kd with fluorescein is ≥ 10 µM. For the same variant, in data set [1], the yeast surface expression was 0.697.

Take chain 1 N35T: in the data set with fluorescein, the Kd is ≥ 10 µM. The yeast surface expression in data set [1] was 0.879.

In the case of chain 1 N35Q, the Kd with fluorescein was ≥ 10 µM. Also, the yeast surface expression in data set [1] was 0.814.

Regarding chain 1 N35F, the Kd in the data set with fluorescein is ≥ 10 µM. In addition, in data set [1], the yeast surface expression worked out at 0.708.

Regarding chain 1 N35S, the Kd in the data set with fluorescein is ≥ 10 µM. Further, the yeast surface expression in data set [1] amounted to 1.04.

On to chain 1 N35I, for which, in the data set with fluorescein, the Kd is ≥ 10 µM. Besides, in data set [1], the yeast surface expression was 0.652.

On to chain 1 N35L, for which the Kd in the data set with fluorescein is ≥ 10 µM. Further, the yeast surface expression in data set [1] stood at 0.692.

In the case of chain 1 N35G, the Kd with fluorescein is 0.0102 µM. In data set [1], the yeast surface expression is 0.989.

chain 1 N35W: in the data set with fluorescein, the dissociation constant Kd is ≥ 10 µM. Further, the yeast surface expression in data set [1] was 0.6.

Consider chain 1 S30G D31H S101A Y102S D106E W108L, for which the Kd with fluorescein is 0.000351 µM. Moreover, the yeast surface expression in data set [1] amounted to 0.844.

Regarding chain 1 N35I V37M, in the data set with fluorescein, the dissociation constant Kd is ≥ 10 µM. Also, the yeast surface expression in data set [1] is 0.626.

With chain 1 S30Q D31E N35K, the dissociation constant Kd in the data set with fluorescein is ≥ 10 µM. The yeast surface expression in data set [1] was determined as 2.59.

chain 1 N35A W36P: the Kd with fluorescein is ≥ 10 µM. In addition, the yeast surface expression in data set [1] was found to be 0.663.

On to chain 1 S30E W33Q, for which the Kd with fluorescein was ≥ 10 µM. The yeast surface expression in data set [1] turned out to be 0.96.

On to chain 1 S30E W33K, for which the Kd with fluorescein was ≥ 10 µM. Besides, the yeast surface expression in data set [1] was 0.771.

Take chain 1 S30G N35P W36F: the Kd in the data set with fluorescein was ≥ 10 µM. In addition, the yeast surface expression in data set [1] was 0.718.
